Results published in PMC8230831.

Target: CXC chemokine receptor 4 (CXCR4) (human (endogenous in HeLa)) (UniProt P61073)
Details: scale: apoptotic figures per 400 x magnification tumor field

UniProt P61073, sequence (P61073 whole entry): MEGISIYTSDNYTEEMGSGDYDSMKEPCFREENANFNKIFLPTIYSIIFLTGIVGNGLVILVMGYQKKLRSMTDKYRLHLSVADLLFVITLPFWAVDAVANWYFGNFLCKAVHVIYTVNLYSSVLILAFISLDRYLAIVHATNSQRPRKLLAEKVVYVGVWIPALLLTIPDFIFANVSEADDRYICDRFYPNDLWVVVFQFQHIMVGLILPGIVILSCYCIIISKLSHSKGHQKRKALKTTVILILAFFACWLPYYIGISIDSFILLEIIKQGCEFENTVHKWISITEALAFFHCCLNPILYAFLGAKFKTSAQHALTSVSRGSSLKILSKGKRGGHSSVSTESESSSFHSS

apoptotic figures in CXCR4+ M5 colorectal tumors of mice, 0.5 to 24 h after a single 200 µg i.v. dose (histology); peak at 24 h: 30
Substance: biparatopic EPIX4-(RK)-GFP-H6/T22-GFP-H6 NPs (complex)
